In paper PMC2939592, “Laser ablation-based one-step generation and bio-functionalization of gold nanoparticles conjugated with aptamers”:

Target: PSMA (prostate-specific membrane antigen) (human, UniProt Q04609 1-750)
Experiment: tissue microarray staining with silver enhancement; 1 mM MgCl2, 1 mM CaCl2; epithelial staining similar to anti-PSMA antibody; extra smooth muscle staining; miniStrep: 50 mM Tris-Cl pH 8.0, 150 mM NaCl, 10 mM MgCl2, room temperature (16 h in solution); anti-PSMA: 20 mM HEPES pH 7.4, 150 mM NaCl, 1 mM MgCl2, 1 mM CaCl2, 0.05% Tween 20, 20 C
Conditions: protein: native; chain copies: 2; label: AuNP

Chain of PSMA (prostate-specific membrane antigen) (Q04609 whole entry): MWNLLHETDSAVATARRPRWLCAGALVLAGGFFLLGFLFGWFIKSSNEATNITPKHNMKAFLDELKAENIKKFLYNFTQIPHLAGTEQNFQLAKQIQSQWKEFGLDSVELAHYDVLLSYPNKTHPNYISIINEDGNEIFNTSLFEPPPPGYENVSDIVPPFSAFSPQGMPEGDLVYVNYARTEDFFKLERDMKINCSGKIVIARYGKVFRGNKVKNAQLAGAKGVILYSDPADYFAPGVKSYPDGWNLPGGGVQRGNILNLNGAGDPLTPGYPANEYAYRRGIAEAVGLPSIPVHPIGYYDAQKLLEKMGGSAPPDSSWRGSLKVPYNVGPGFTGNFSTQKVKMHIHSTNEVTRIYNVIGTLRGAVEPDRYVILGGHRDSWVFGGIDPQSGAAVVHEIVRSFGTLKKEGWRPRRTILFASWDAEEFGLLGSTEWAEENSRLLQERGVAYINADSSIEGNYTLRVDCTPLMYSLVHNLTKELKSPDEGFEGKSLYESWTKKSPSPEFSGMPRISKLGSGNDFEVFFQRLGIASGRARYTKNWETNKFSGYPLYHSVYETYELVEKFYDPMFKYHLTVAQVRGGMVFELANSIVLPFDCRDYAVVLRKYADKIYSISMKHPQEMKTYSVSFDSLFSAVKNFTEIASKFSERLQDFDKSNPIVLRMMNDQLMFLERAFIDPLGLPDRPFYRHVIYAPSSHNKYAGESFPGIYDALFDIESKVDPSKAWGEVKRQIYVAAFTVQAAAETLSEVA

B1: anti-PSMA aptamer on AuNP (structured_RNA)
RNA: GGGAGGACGAUGCGGAUCAGCCAUGUUUACGUCACUCCUUGUCAAUCCUCAUCGGCAGACGACUCGCCCGA
modifications: 3'-(CH2CH2O)6-(CH2)6-S-S-(CH2)6OH, conjugated to gold nanoparticle; base/sugar modifications not stated
- binding result: binds
